The record followed here is patent publication EP4717706A1.

Changes are numbered by the printed parent chain. Numbers in names are those of the source.

First the molecules themselves.
B1: AVR24a (AVR21 with N329K, E401G, T426A) (receptor)
chain: MGSAGESDQITLPKHEAQLKVYVLLVPPKGEASTYDWQLITHPRDYSGEMEGEHSQILKLSNLTPGLYEYRAVVEGQNAHSEGYVNVTVEPGPRKNRPPIAIVSPQFQEISLPTTSAVIDGSQSTDDDKIVQYHWEELKGPLREEKISEDTAILKLSQLVPGNYTFRLTVVDTDGATDSTTADLTVNKAVDHHHHHH
B2: AVR25c with G392E, S433G, A485V, L493M, N496D (receptor)
chain: B1 chain with G83E, S124G, A152P, Q158N, A176V, L184M, N187D
B3: AVR25c with Q318R, E362D, E378G (receptor)
chain: B1 chain with Q9R, E53D, E69G, A152P, Q158N
B4: AVR25c with Q347R, T486A, D500G (receptor)
chain: B1 chain with Q38R, A152P, Q158N, T177A, D191G
B5: AVR25c with G314D, E399K, E445K (receptor)
chain: B1 chain with G5D, E90K, E136K, A152P, Q158N
B6: AVR25c with H363P, K497E (receptor)
chain: B1 chain with H54P, A152P, Q158N, K188E
B7: AVR25c_T474R (AVR25c with T474R) (receptor)
chain: B1 chain with A152P, Q158N, T165R
B8: AVR25c with P322A, T350A, L421P (receptor)
chain: B1 chain with P13A, T41A, L112P, A152P, Q158N
B9: AVR25c with Q415R, S457R (receptor)
chain: B1 chain with Q106R, S148R, A152P, Q158N
B10: AVR25c with V(D)317G, T478I (receptor)
chain: B1 chain with D8G, A152P, Q158N, T169I
B11: AVR25c with E325V, D437V (receptor)
chain: B1 chain with E16V, D128V, A152P, Q158N
B12: AVR25c with E378G, V398A (receptor)
chain: B1 chain with E69G, V89A, A152P, Q158N
B13: AVR25c with F(Y)379N (receptor)
chain: B1 chain with Y70N, A152P, Q158N
B14: AVR25c with T434S (receptor)
chain: B1 chain with T125S, A152P, Q158N
B15: AVR25c with G314D, V499I (receptor)
chain: B1 chain with G5D, A152P, Q158N, V190I
B16: AVR25c with R406H, F416L (receptor)
chain: B1 chain with R97H, F107L, A152P, Q158N
B17: AVR21 with I319N, Y377F (receptor)
chain: B1 chain with I10N, K20N, Y68F, G92E, A117T
B18: AVR21 with I366F, D435A (receptor)
chain: B1 chain with K20N, I57F, G92E, A117T, D126A
B19: AVR21 with V332A (receptor)
chain: B1 chain with K20N, V23A, G92E, A117T
B20: AVR21 with E340G (receptor)
chain: B1 chain with K20N, E31G, G92E, A117T
B21: AVR21 with F(Y)379S (receptor)
chain: B1 chain with K20N, Y70S, G92E, A117T
B22: AVR21 with L367P, V412A (receptor)
chain: B1 chain with K20N, L58P, G92E, V103A, A117T
B23: AVR21 with E(V)335A, V394I (receptor)
chain: B1 chain with K20N, V26A, V85I, G92E, A117T
B24: AVR21 with Q365R, V(A)381T, K497E (receptor)
chain: B1 chain with K20N, Q56R, A72T, G92E, A117T, K188E
B25: AVR21 with L328P, V394A (receptor)
chain: B1 chain with L19P, K20N, V85A, G92E, A117T
B26: AVR21 with I(V)382I (receptor)
chain: B1 chain with K20N, V73I, G92E, A117T
B27: AVR21 with D500N (receptor)
chain: B1 chain with K20N, G92E, A117T, D191N
B28: AVR21 with T397A (receptor)
chain: B1 chain with K20N, T88A, G92E, A117T
B29: AVR21 with Y344F, T350A, Y377N (receptor)
chain: B1 chain with K20N, Y35F, T41A, Y68N, G92E, A117T
B30: AVR21 with E360D, H389R (receptor)
chain: B1 chain with K20N, E51D, H80R, G92E, A117T
B31: AVR21 with N329S, K368R, V412A (receptor)
chain: B1 chain with K20S, K59R, G92E, V103A, A117T
B32: AVR21 with K338R, A461P (receptor)
chain: B1 chain with K20N, K29R, G92E, A117T, A152P
B33: AVR21 with D345G, E454D (receptor)
chain: B1 chain with K20N, D36G, G92E, A117T, E145D
B34: AVR21 with L321Q, T343S (receptor)
chain: B1 chain with L12Q, K20N, T34S, G92E, A117T
B35: AVR21 with L376P (receptor)
chain: B1 chain with K20N, L67P, G92E, A117T
B36: AVR21 with E378G (receptor)
chain: B1 chain with K20N, E69G, G92E, A117T
B37: AVR21 with Q347K, N472K (receptor)
chain: B1 chain with K20N, Q38K, G92E, A117T, N163K
B38: AVR21 with L321Q (receptor)
chain: B1 chain with L12Q, K20N, G92E, A117T
B39: AVR21 with L367P (receptor)
chain: B1 chain with K20N, L58P, G92E, A117T
B40: AVR21 with T426A (receptor)
chain: B1 chain with K20N, G92E
B41: AVR21 with T343A, K(N)371D (receptor)
chain: B1 chain with K20N, T34A, N62D, G92E, A117T
B42: AVR21 with L376P, P402S (receptor)
chain: B1 chain with K20N, L67P, G92E, P93S, A117T
B43: AVR21 with K(N)371S, E453D, S466T (receptor)
chain: B1 chain with K20N, N62S, G92E, A117T, E144D, S157T
B44: AVR21 with E384D, V396E (receptor)
chain: B1 chain with K20N, E75D, V87E, G92E, A117T
B45: AVR21 with N329K, E401G (receptor)
chain: B1 chain with A117T
B46: AVR21 with T397S (receptor)
chain: B1 chain with K20N, T88S, G92E, A117T
B47: AVR21 with L369S (receptor)
chain: B1 chain with K20N, L60S, G92E, A117T
B48: AVR21 with V412A (receptor)
chain: B1 chain with K20N, G92E, V103A, A117T
B49: AVR21 with E(V)335A (receptor)
chain: B1 chain with K20N, V26A, G92E, A117T

The target in the first assay is VLP2 (virus-like particles, capsid protein particles of AAV serotype 2) (AAV serotype 2 (AAV2)) (UniProt P03135). Put plainly: ELISA on immobilised VLP2 (purified protein); A450 after 1:1 0.5 M NaOH, 30°C, 30 min divided by A450 at 0 time.
Sequence of UniProt P03135 (P03135 whole entry): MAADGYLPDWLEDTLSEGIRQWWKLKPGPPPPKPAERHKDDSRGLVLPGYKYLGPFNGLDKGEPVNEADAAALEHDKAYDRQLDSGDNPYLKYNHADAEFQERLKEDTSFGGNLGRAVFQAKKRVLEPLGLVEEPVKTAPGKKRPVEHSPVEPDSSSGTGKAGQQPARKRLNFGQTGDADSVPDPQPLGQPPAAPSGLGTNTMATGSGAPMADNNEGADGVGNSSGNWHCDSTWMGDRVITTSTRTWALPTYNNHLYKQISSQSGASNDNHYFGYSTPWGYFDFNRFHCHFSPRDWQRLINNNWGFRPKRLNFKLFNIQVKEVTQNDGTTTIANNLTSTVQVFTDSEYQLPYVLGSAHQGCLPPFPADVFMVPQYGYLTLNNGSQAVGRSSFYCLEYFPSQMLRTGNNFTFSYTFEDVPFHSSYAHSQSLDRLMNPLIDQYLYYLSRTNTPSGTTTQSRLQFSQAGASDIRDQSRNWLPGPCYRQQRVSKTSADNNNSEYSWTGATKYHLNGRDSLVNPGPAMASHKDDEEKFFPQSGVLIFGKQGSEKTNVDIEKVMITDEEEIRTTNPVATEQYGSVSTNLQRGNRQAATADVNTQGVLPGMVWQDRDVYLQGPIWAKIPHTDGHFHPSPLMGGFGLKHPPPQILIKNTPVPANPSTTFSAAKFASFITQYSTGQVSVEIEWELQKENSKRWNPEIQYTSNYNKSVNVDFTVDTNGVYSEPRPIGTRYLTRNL
In the case of B1, the Remaining activity [%] was 37.6%.

The target is the same in the next assay. Put plainly: ELISA on immobilised VLP2 (culture supernatant); A450 after 1:1 1 M NaOH, 15 min, 30°C divided by A450 untreated.
On to B2, for which the Remaining activity [%] came to 61%.

B3 had a Remaining activity [%] of 66.1%.

As to B4, the Remaining activity [%] came to 72.8%.

On to B5, for which the Remaining activity [%] amounted to 62.5%.

Turning to B6, the Remaining activity [%] is 69.6%.

B7 yielded a Remaining activity [%] of 100%.

B8 had a Remaining activity [%] of 49.6%.

The molecule B9 had a Remaining activity [%] of 55.1%.

In turn, B10 registered a Remaining activity [%] of 82%.

For the molecule B11, the Remaining activity [%] turned out to be 76.7%.

Take B12: the Remaining activity [%] is 67.5%.

B13 showed a Remaining activity [%] of 55.1%.

As for B14, the Remaining activity [%] was determined as 77.3%.

B15 had a Remaining activity [%] of 79.1%.

Turning to B16, the Remaining activity [%] came to 41.9%.

A further assay has the same target. Put plainly: ELISA on immobilised VLP2 (culture supernatant, anti-His detection); A450 after 1:1 0.5 M NaOH, 30 min, 30°C divided by A450 untreated.
For B17, the Remaining activity [%] turned out to be 45.1%.

B18 yielded a Remaining activity [%] of 38.4%.

Molecule B19 came in with a Remaining activity [%] of 57.6%.

B20 displayed a Remaining activity [%] of 28.1%.

Take B21: the Remaining activity [%] amounted to 54.9%.

The molecule B22 returned a Remaining activity [%] of 35.8%.

On to B23, for which the Remaining activity [%] was determined as 37.3%.

As to B24, the Remaining activity [%] came out at 42%.

In turn, B25 showed a Remaining activity [%] of 40.5%.

In the case of B26, the Remaining activity [%] stood at 32.8%.

As to B27, the Remaining activity [%] is 39.3%.

In turn, B28 showed a Remaining activity [%] of 40.4%.

For the molecule B29, the Remaining activity [%] was 34.4%.

In turn, B30 came in with a Remaining activity [%] of 46.7%.

For B31, the Remaining activity [%] was found to be 37.1%.

Consider B32, for which the Remaining activity [%] was 36.4%.

For B33, the Remaining activity [%] turned out to be 61.7%.

Molecule B34 registered a Remaining activity [%] of 50.4%.

B35 returned a Remaining activity [%] of 42.6%.

Take B36: the Remaining activity [%] came out at 58%.

As for B37, the Remaining activity [%] was 58.9%.

With B38, the Remaining activity [%] was 34.2%.

Turning to B39, the Remaining activity [%] worked out at 35.7%.

In turn, B40 gave a Remaining activity [%] of 43.5%.

In turn, B41 showed a Remaining activity [%] of 40.5%.

In turn, B42 yielded a Remaining activity [%] of 35.1%.

In turn, B43 returned a Remaining activity [%] of 57.3%.

B44 had a Remaining activity [%] of 45.3%.

Molecule B45 showed a Remaining activity [%] of 43.1%.

B46 showed a Remaining activity [%] of 38.4%.

B47 registered a Remaining activity [%] of 51.4%.

Take B48: the Remaining activity [%] came to 32.5%.

B49 returned a Remaining activity [%] of 35.8%.

The next assay shares this target. Put plainly: ELISA on immobilised VLP2 (purified protein); start of alkali treatment, the reference of the ratio. (An ELISA detects its analyte on a solid surface through an enzyme-linked reagent.)
Consider B1, for which the Remaining activity [%] came to 100%.

For another assay the target is unchanged. Description: ELISA on immobilised VLP2 (purified protein); A450 after 1:1 0.5 M NaOH, 30°C, 60 min divided by A450 at 0 time.
As to B1, the Remaining activity [%] is 0.3%.
